Test results reported in article PMC4889959 (Nucleic Acids Research, 2016).

B1: SLX4BTB wild type, yeast two-hybrid fusion [human] / itself (parent complex)
chain: QDKHPDRGGRTLLSLGLLVADFGAMVNNPHLSDVQFQTDSGEVLYAHKFVLYARCPLLIQYVNNEGFSAVEDGVLTQRVLLGDVSTEAARTFLHYLYTADTGLPPGLSSELSSLAHRFGVSELVHLCEQVPIATDS

Variants of: B1
Experiment: yeast two-hybrid β-galactosidase assay; ONPG as substrate; SLX4BTB-F708R-AD + SLX4BTB-F708R-BD; parent: 710; read off a plot

| response | Variant |
| --- | --- |
| ~3 OD420 reading | chain 1 F49R |

Variants of: B1
Experiment: yeast two-hybrid β-galactosidase assay; ONPG as substrate; SLX4BTB-F681R-F708R-AD + SLX4BTB-F681R-F708R-BD; parent: 710; read off a plot

| response | Variant |
| --- | --- |
| ~2.5 OD420 reading | chain 1 F22R, chain 1 F49R |
